Source: patent US20130243767A1
Ends that are not written are not given here.

Biological target: CD32 (FcγRII) on human plasmacytoid dendritic cells (human) (UniProt P12318)
Assay: cell-based or functional assay

CD32 (FcγRII) on human plasmacytoid dendritic cells (human), sequence (P12318 34-317): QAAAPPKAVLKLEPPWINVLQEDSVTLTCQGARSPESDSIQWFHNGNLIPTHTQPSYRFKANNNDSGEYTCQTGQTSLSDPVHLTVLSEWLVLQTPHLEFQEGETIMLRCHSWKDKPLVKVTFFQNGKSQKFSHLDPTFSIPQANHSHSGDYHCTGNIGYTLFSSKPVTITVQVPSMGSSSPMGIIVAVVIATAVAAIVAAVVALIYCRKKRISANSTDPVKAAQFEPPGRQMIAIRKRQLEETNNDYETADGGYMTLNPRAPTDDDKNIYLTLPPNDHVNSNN

IL-6 production of pDCS in PBMC after stimulation with CPG-C: 75 times | TNFα induction in PBMC after stimulation with CPG-C: 3 times
Binder: ADGAWAWVWLTETAVGAAK-biotin [aCD32a peptide published by Berntzen et al, …-biotin]
